Experimental data as given in US7524668 (ELAN PHARMACEUTICALS, dated 2009).
Non-standard residues stand in square brackets, D forms with d. No end group written: not given here. Sta = CC(C)C[C@H](N)[C@@H](O)CC(=O)O

Tests used:
[1] = molecular target: T1, CHO cell expressed recombinant human beta secretase proteolytically cleaved with HIV protease (human, UniProt P56817 61-453); assay: affinity chromatography on peptide-coupled resin
T1 construct: N-terminus at V40 after cleavage of the F39-V40 bond; also called HIV-1 protease treated beta secretase; HIV protease treated CHO produced beta secretase
T1 sequence (P56817 other isoform, or with tags, fused parts or gaps limits assumed): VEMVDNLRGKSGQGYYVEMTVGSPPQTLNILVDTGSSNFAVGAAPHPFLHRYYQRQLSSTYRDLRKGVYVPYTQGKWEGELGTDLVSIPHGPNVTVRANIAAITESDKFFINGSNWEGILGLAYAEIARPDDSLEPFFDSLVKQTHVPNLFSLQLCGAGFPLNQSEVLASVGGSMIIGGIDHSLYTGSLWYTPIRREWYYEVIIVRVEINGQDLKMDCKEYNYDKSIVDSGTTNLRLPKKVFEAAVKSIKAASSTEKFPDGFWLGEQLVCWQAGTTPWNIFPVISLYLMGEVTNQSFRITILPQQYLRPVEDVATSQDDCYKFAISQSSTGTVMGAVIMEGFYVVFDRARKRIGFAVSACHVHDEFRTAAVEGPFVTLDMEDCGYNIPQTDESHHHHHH

[2] = molecular target: T2, pET11a-T7.Tag-Gly-Ser-Met-(A-GV...QTDES) E. coli expressed recombinant human BACE (human, UniProt P56817 14-453); assay: affinity chromatography on peptide-coupled resin, bound at pH 4.5, eluted at pH 8.5
T2 construct: The construct carries an N-terminal T7 tag; also called pET11a-BACE; beta secretase
T2 sequence (P56817 other isoform, or with tags, fused parts or gaps limits assumed): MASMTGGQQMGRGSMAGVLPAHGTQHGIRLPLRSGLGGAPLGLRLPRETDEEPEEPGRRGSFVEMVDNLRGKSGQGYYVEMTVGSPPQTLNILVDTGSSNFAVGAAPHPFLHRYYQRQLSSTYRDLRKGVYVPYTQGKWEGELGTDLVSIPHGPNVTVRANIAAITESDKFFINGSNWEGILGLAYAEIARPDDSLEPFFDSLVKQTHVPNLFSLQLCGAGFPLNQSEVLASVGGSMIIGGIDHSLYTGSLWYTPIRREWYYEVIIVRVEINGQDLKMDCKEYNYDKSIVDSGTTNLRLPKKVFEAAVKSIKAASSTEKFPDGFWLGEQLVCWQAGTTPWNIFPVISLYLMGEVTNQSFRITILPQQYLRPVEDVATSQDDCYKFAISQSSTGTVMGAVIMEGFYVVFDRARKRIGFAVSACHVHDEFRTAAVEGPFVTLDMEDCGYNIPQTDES

[3] = molecular target: T3, pQE80L-Met-Arg-Gly-Ser-(His)6-Gly-Ser-Ile-Glu-Thr-Asp-(TQH...QTDES) E. coli expressed recombinant human BACE (human, UniProt P56817 22-453); assay: as above
T3 construct: N-terminal His6 tag is part of the construct; also called pQE80L-BACE; pQE-80-BACE
T3 sequence (P56817 other isoform, or with tags, fused parts or gaps limits assumed): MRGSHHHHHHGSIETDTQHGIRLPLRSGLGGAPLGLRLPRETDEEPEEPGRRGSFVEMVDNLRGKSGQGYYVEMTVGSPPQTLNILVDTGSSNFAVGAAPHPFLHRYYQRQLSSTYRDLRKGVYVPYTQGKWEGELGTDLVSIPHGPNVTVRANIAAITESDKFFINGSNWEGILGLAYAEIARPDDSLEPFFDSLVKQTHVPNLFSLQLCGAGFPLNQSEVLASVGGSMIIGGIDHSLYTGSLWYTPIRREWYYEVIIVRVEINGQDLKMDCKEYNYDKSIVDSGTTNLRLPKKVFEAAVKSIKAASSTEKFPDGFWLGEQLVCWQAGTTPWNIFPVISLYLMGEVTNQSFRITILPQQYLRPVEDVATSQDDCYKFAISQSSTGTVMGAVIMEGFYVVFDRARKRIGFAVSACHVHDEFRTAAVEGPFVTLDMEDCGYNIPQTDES

[4] = molecular target: T4, pQE70-Met-Arg-Gly-Ser-Phe-Val-Glu-...Thr-Asp-Glu-Ser-Arg-Ser-(His)6 E. coli expressed recombinant human BACE (human, UniProt P56817 57-453); assay: affinity chromatography on peptide-coupled resin, bound at acidic pH, eluted at pH 8.5
T4 construct: C-terminal His6 tag is part of the construct; also called pQE70-BACE
T4 sequence (P56817 other isoform, or with tags, fused parts or gaps limits assumed): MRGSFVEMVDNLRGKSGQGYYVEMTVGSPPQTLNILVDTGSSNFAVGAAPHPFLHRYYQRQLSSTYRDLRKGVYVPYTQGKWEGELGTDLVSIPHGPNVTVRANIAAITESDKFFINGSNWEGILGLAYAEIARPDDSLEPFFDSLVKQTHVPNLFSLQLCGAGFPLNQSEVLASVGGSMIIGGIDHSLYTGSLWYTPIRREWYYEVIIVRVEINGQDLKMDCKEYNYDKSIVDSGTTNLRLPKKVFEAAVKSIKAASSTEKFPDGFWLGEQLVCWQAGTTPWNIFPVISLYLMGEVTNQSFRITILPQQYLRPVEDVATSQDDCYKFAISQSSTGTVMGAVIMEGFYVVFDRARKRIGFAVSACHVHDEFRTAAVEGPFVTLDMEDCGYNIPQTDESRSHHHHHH
Protocol: Prior to purification, the pH of the refolded protein was lowered from about 10 to 8.5 with HCl. The solution was loaded onto three 50 ml Q-Sepharose columns (Pharmacia Biotech XK 50). The columns were pre-equilibrated in 0.4 M Urea, 10 mM AMPSO, pH 8.5. After refolded protein was loaded onto the columns, they were washed with 500 ml of 0.4 M Urea, 10 mM TRIS, pH 8.2. The columns were eluted with 180-245 ml of 0.75 M NaCl in 0.4 M Urea 10 mM TRIS buffer, pH 8.2. The eluates were then dialyzed versus 20 mM HEPES, pH 8.0. The samples were then removed from dialysis and dropped into 1 M NaMES, pH 5.7 (0.1 M final concentration). After centrifugation (20 Kxg) the supernatant was dropped into 1 M Na-acetate, 1 M NaMES, pH 5.0 (0.2 M Na-acetate, 0.28 M Na-MES was the final concentration). […] This solution was then applied to a 15 ml affinity column equilibrated at the same pH. The column was washed with 6 column volumes of 20 mM sodium acetate buffer pH 4.5, 150 mM NaCl. BACE was eluted at pH 8.5 using about 50 ml of 0.1 M borate buffer. […] Purified pQE70-BACE was dialyzed into 100 mM NaBorate pH 8.5.

Measured: binding result

SEVN[Sta]VAEFRGGC (also: coupled to Sulfolink resin via Cys) [synthetic peptide Ser-Glu-Val-Asn-Sta-Val-Ala-Glu-Phe-Arg-Gly-Gly-Cys (where Sta=statine)]
binds: all assays above
